Results published in US20080286287A1.

Biological target: aggrecan
Assay: solid-phase binding assay: aggrecan-coated wells, 10 ng/well IGFBP-2, detected with 125I-IGF-I

reduction in binding (against native IGFBP-2): 75%
Substance: HBD-IGFBP-2 mutant (179PKKLRP184 mutated to 179PNNLAP184) (from UniProt P18065 37-325)
